Experimental data taken from US20180051081A1 (published 2018).

T1: rat CD47 (rat, UniProt P97829 19-303)
T1 construct: whole, on cells; also called CD47 on rat RBCs
T1 sequence (looked up): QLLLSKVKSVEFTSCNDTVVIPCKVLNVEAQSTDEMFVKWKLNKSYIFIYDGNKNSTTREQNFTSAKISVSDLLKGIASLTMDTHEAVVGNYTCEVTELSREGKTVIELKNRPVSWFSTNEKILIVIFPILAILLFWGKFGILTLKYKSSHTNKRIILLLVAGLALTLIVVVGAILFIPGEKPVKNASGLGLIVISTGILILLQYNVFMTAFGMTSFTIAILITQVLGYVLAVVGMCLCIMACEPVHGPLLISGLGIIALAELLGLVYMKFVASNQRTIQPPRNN

T2: mouse CD47 (mouse, UniProt Q61735 19-303)
T2 construct: whole, on cells; also called CD47 on mouse RBCs; CD47 on 4T1 cells
T2 sequence (looked up): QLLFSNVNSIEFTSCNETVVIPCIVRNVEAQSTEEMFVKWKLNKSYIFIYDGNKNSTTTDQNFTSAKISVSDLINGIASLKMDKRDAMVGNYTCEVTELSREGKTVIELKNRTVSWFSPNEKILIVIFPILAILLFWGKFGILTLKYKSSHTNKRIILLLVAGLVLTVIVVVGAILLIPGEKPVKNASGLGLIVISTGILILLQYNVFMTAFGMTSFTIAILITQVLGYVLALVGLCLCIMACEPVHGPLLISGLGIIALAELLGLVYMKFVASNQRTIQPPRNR

T3: dog CD47 (dog, UniProt A0A8I3PM61 19-310)
T3 construct: also called CD47 on dog RBCs
T3 sequence: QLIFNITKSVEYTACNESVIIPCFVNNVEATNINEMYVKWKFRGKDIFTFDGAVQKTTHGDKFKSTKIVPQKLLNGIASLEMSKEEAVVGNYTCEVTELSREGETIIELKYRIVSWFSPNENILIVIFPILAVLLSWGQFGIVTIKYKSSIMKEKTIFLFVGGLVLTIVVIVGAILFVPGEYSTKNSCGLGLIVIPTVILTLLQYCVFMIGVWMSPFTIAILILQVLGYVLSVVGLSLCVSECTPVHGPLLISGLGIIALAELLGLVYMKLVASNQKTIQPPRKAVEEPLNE

T4: pig CD47 (pig, UniProt Q9GKE8 19-303)
T4 construct: whole, on cells; also called CD47 on porcine RBCs
T4 sequence (looked up): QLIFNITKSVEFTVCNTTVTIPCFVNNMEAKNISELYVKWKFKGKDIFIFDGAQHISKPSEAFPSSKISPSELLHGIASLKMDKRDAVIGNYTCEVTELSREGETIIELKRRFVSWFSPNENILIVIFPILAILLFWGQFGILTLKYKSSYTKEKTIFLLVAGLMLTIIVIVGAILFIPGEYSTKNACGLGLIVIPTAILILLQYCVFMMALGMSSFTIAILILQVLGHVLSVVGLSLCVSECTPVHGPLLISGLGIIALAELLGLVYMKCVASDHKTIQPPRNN


Assays:
human CD47 = biological target: T5, human CD47 (human, UniProt Q08722 19-323); test: FACS, human RBCs, supernatant 10 ng/ml
T5 construct: whole, on cells; also called CD47 on human RBCs; CD47 on OV10 cells
Description: (§1) RBCs are incubated for 60 minutes on ice with tissue culture supernatants containing the secreted humanized antibodies at a concentration of 10 ng/ml in a solution of phosphate buffered saline, pH 7.2, 2.5 mM EDTA (PBS+E), or with various concentrations of purified antibodies. Cells are then washed with cold PBS+E, and incubated for an additional hour on ice with FITC labeled donkey anti-human antibody (Jackson Immuno Research Labs, West Grove, Pa.; Catalogue #709-096-149) in PBS+E. Cells are then washed with PBS+E, and antibody binding is analyzed using a BD FACSAria Cell Sorter (Becton Dickinson) or a C6 Accuri Flow Cytometer (Becton Dickinson). Antibody binding is quantitated by comparison of mean fluorescence values relative to that of chimeric antibody >VxP037-01LC (SEQ ID NO:7))/>VxP037-01HC (SEQ ID NO:57). The mean fluorescence value for each antibody is divided by the mean fluorescence value for the chimeric antibody.

rat CD47 = biological target: T1, rat CD47; test: FACS, rat RBCs, supernatant 10 ng/ml
Description: as §1

mouse CD47 = biological target: T2, mouse CD47; test: FACS, mouse RBCs, supernatant 10 ng/ml
Description: as §1

dog CD47 = biological target: T3, dog CD47; test: FACS, dog RBCs, supernatant 10 ng/ml
Description: as §1

pig CD47 = biological target: T4, pig CD47; test: FACS, pig RBCs, supernatant 10 ng/ml
Description: as §1

T5 sequence (Q08722 19-323): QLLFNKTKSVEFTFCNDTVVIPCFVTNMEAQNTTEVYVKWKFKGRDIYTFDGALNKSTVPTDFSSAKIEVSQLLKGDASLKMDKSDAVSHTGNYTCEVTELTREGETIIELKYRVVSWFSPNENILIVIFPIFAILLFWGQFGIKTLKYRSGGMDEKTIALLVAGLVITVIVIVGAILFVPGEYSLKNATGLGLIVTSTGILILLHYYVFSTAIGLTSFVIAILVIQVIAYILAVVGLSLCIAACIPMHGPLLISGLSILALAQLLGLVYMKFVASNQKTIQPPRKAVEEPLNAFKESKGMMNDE

mean fluorescence relative to chimera (human CD47) | mean fluorescence relative to chimera (rat CD47) | mean fluorescence relative to chimera (mouse CD47) | mean fluorescence relative to chimera (dog CD47) | mean fluorescence relative to chimera (pig CD47) | Binder
1.3 | 1.9 | 1.5 | 1.1 | 1.7 | Clone 20 (pVxK7b-037-hum20-LC / pVxK7b-037-hum20-HC) (antibody, human IgG1, kappa) light: DIVMTQTPLSLPVTPGEPASISCRSSQSLVHSNGNTYLHWYLQKPGQSPQLLIYKVSYRFSGVPDRFSGSGSGTDFTLKISRVEAEDVGVYYCSQNTHVPRTFGQGTKVEIKRTVAAPSVFIFPPSDEQLKSGTASVVCLLNNFYPREAKVQWKVDNALQSGNSQESVTEQDSKDSTYSLSSTLTLSKADYEKHKVYACEVTHQGLSSPVTKSFNRGEC heavy: not shown
1.1 | 3.2 | 1.5 | 1.3 | 1.4 | Clone 14 (pVxK7b-037-hum14-LC / pVxK7b-037-hum14-HC) (antibody, human IgG1, kappa) light: DVVMTQSPLSLPVTLGQPASISCRSSQSLVHSNGNTYLHWYQQKPGKAPKLLIYKVSYRFSGVPDRFSGSGSGTDFTLKISRVEAEDVGVYYCSQNTHVPRTFGQGTKVEIKRTVAAPSVFIFPPSDEQLKSGTASVVCLLNNFYPREAKVQWKVDNALQSGNSQESVTEQDSKDSTYSLSSTLTLSKADYEKHKVYACEVTHQGLSSPVTKSFNRGEC heavy: not shown
1.2 | 3.1 | 1.3 | 1 | 1.4 | Clone 13 (pVxK7b-037-hum13-LC / pVxK7b-037-hum13-HC) (antibody, human IgG1, kappa, also called Cl 13) light: DIVMTQTPLSLPVTPGEPASISCRSSQSLVHSNGNTYLHWYQQKPGKAPKLLIYKVSYRFSGVPDRFSGSGSGTDFTLKISRVEAEDVGVYYCSQNTHVPRTFGQGTKVEIKRTVAAPSVFIFPPSDEQLKSGTASVVCLLNNFYPREAKVQWKVDNALQSGNSQESVTEQDSKDSTYSLSSTLTLSKADYEKHKVYACEVTHQGLSSPVTKSFNRGEC heavy: not shown
0.9 | 2.1 | 1.2 | 1.1 | 1.1 | Clone 6 (pVxK7b-037-hum06-LC / pVxK7b-037-hum06-HC) (antibody, human IgG1, kappa, V domains shown) VH: QVQLQESGPGLVKPSQTLSLTCTVSGYTFTNYYVFWVRQARGQRLEWIGDINPVNGDTNFNEKFKNRLTISKDTSKNQVVLTMTNMDPVDTATYYCARGGYTMDYWGQGTLVTVSS VL: DIQMTQSPSSLSASVGDRVTITCRSSQSLVHSNGNTYLHWYLQKPGQSPQLLIYKVSYRFSGIPARFSGSGSGTEFTLTISSLQSEDFAVYYCSQNTHVPRTFGQGTKVEIKR
1.2 | 2.8 | 1.2 | 1.1 | 1.4 | Clone 21 (pVxK7b-037-hum21-LC / pVxK7b-037-hum21-HC) (antibody, human IgG1, kappa, V domains shown) VH: QVQLQESGPGLVKPSQTLSLTCTVSGYTFTNYYVFWVRQARGQRLEWIGDINPVNGDTNFNEKFKNRLTISKDTSKNQVVLTMTNMDPVDTATYYCARGGYTMDYWGQGTLVTVSS VL: AIQLTQSPSSLSASVGDRVTITCRSSQSLVHSNGNTYLHWYQQKPGQAPRLLIYKVSYRFSGVPDRFSGSGSGTDFTLKISRVEAEDVGVYYCSQNTHVPRTFGQGTKVEIKR
1 | 1 | 1 | 1 | 1 | chimeric antibody VxP037-01LC-Pro/VxP037-01HC-Pro (antibody, human IgG1, kappa, V domains shown, also called Chimera; VxP037-01LC/VxP037-01HC) VH: EVQLQQFGAELVKPGASMKLSCKASGYTFTNYYVFWVKQRPGQGLEWIGDINPVNGDTNFNEKFKNKATLTVDKSSTTTYLQLSSLTSEDSAVYYCTRGGYTMDYWGQGTLVTVSS VL: DVVMTQTPLSLSVSLGDQASISCRSSQSLVHSNGNTYLHWYLQKPGQSPKLLIYKVSYRFSGVPDRFSGSGSGTDFTLKISRVEAEDLGVYFCSQNTHVPRTFGQGTKVEIKR

More lines, now with the values behind:

Binder | mean fluorescence relative to chimera (human CD47) | mean fluorescence relative to chimera (rat CD47) | mean fluorescence relative to chimera (mouse CD47) | mean fluorescence relative to chimera (dog CD47) | mean fluorescence relative to chimera (pig CD47)
Clone 1 (pVxK7b-037-hum01-LC / pVxK7b-037-hum01-HC) (antibody, human IgG1, kappa, also called Cl 1) light: DIVMTQTPLSLPVTPGEPASISCRSSQSLVHSNGNTYLHWYQQKPGKAPKLLIYKVSYRFSGVPDRFSGSGSGTDFTLKISRVEAEDVGVYYCSQNTHVPRTFGQGTKVEIKRTVAAPSVFIFPPSDEQLKSGTASVVCLLNNFYPREAKVQWKVDNALQSGNSQESVTEQDSKDSTYSLSSTLTLSKADYEKHKVYACEVTHQGLSSPVTKSFNRGEC heavy: not shown | 1.1 | 2.7 | 1.7 | 1 | 1.3
Clone 19 (pVxK7b-037-hum19-LC / pVxK7b-037-hum19-HC) (antibody, human IgG1, kappa) light: DVVMTQSPLSLPVTLGQPASISCRSSQSLVHSNGNTYLHWYQQKPGKAPKLLIYKVSYRFSGVPDRFSGSGSGTDFTLKISRVEAEDVGVYYCSQNTHVPRTFGQGTKVEIKRTVAAPSVFIFPPSDEQLKSGTASVVCLLNNFYPREAKVQWKVDNALQSGNSQESVTEQDSKDSTYSLSSTLTLSKADYEKHKVYACEVTHQGLSSPVTKSFNRGEC heavy: not shown | 0.7 | 2.6 | 1 | 1.2 | 1.3
Clone 3 (pVxK7b-037-hum03-LC / pVxK7b-037-hum03-HC) (antibody, human IgG1, kappa) light: DVVMTQSPLSLPVTLGQPASISCRSSQSLVHSNGNTYLHWYQQKPGKAPKLLIYKVSYRFSGVPDRFSGSGSGTDFTLKISRVEAEDVGVYYCSQNTHVPRTFGQGTKVEIKRTVAAPSVFIFPPSDEQLKSGTASVVCLLNNFYPREAKVQWKVDNALQSGNSQESVTEQDSKDSTYSLSSTLTLSKADYEKHKVYACEVTHQGLSSPVTKSFNRGEC heavy: not shown | 0.7 | 1.7 | 0.9 | 0.9 | 0.9
Clone 15 (pVxK7b-037-hum15-LC / pVxK7b-037-hum15-HC) (antibody, human IgG1, kappa, V domains shown) VH: QVQLQESGPGLVKPSQTLSLTCTVSGYTFTNYYVFWVRQARGQRLEWIGDINPVNGDTNFNEKFKNRLTISKDTSKNQVVLTMTNMDPVDTATYYCARGGYTMDYWGQGTLVTVSS VL: AIQLTQSPSSLSASVGDRVTITCRSSQSLVHSNGNTYLHWYQQKPGQAPRLLIYKVSYRFSGVPSRFSGSGSGTEFTLTISSLQPDDFATYYCSQNTHVPRTFGQGTKVEIKR | 1 | 2.4 | 1.3 | 1.1 | 1.2
Clone 2 (pVxK7b-037-hum02-LC / pVxK7b-037-hum02-HC) (antibody, human IgG1, kappa, V domains shown) VH: QVQLQESGPGLVKPSQTLSLTCTVSGYTFTNYYVFWVRQARGQRLEWIGDINPVNGDTNFNEKFKNRVTISADKSISTAYLQWSSLKASDTAMYYCARGGYTMDYWGQGTLVTVSS VL: DVVMTQSPLSLPVTLGQPASISCRSSQSLVHSNGNTYLHWYQQKPGQAPRLLIYKVSYRFSGVPSRFSGSGSGTEFTLTISSLQPDDFATYYCSQNTHVPRTFGQGTKVEIKR | 1 | 2.6 | 1.2 | 1 | 1.2
